Data reported in the supplement of paper PMC10567573.

B1: PSD2 (parent)
chain: PLMGETQERERVLTHFSRRYCQCN

Variants of: B1
Assay: protein stability index of a GFP-peptide fusion (GPS, HEK-293T) (PSI 1-6); higher = more stable
Settings: c terminus: a fixed tail appended
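Also: lentivirally expressed fusions sorted by FACS into six bins by GFP to DsRed ratio, PSI derived from sequencing read proportions per bin multiplied by bin number.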

With PLMGEMQERERVLTHFSRRYCQCN [T6M] as the variant, how does the protein stability index read?
The protein stability index was 2.52.

For PLMGEAQERERVLTHFSRRYCQCN [T6A], which protein stability index is on record?
Its protein stability index is 3.27.

With PLMGEGQERERVLTHFSRRYCQCN [T6G] as the variant, how does the protein stability index read?
Its protein stability index is 2.84.

Which protein stability index does the source give for PLMGSTQERERVLTHFSRRYCQCN [E5S] here?
The protein stability index was 2.66.

For PLMGITQERERVLTHFSRRYCQCN [E5I], which protein stability index is on record?
Its protein stability index is 2.64.

Which protein stability index does the source give for PLMGVTQERERVLTHFSRRYCQCN [E5V] here?
The protein stability index was 1.92.

With PLMGNTQERERVLTHFSRRYCQCN [E5N] as the variant, how does the protein stability index read?
The protein stability index was 2.69.

For PLMGWTQERERVLTHFSRRYCQCN [E5W], which protein stability index is on record?
Its protein stability index is 1.86.

Which protein stability index does the source give for PLMGTTQERERVLTHFSRRYCQCN [E5T] here?
Its protein stability index is 2.09.

With PLMGATQERERVLTHFSRRYCQCN [E5A] as the variant, how does the protein stability index read?
Its protein stability index is 2.78.

Which protein stability index does the source give for PLMGLTQERERVLTHFSRRYCQCN [E5L] here?
Its protein stability index is 2.08.

Which protein stability index does the source give for PLMGGTQERERVLTHFSRRYCQCN [E5G] here?
The protein stability index was 2.46.

With PLMGPTQERERVLTHFSRRYCQCN [E5P] as the variant, how does the protein stability index read?
The protein stability index was 2.94.

Which protein stability index does the source give for PLMGHTQERERVLTHFSRRYCQCN [E5H] here?
The protein stability index was 2.77.

For PLMGRTQERERVLTHFSRRYCQCN [E5R], which protein stability index is on record?
The protein stability index was 2.39.

Which protein stability index does the source give for PLMGETQERERVNTHFSRRYCQCN [L13N] here?
Its protein stability index is 2.93.

Which protein stability index does the source give for PLMGETQERERVITHFSRRYCQCN [L13I] here?
Its protein stability index is 3.55.

For PLMGETQERERVTTHFSRRYCQCN [L13T], which protein stability index is on record?
Its protein stability index is 2.65.

For PLMGETQERERVQTHFSRRYCQCN [L13Q], which protein stability index is on record?
The protein stability index was 3.5.

For PLMGETQERERVPTHFSRRYCQCN [L13P], which protein stability index is on record?
The protein stability index was 3.19.

Which protein stability index does the source give for PLMGETQERERVSTHFSRRYCQCN [L13S] here?
The protein stability index was 2.52.

With PLMGETQERERVRTHFSRRYCQCN [L13R] as the variant, how does the protein stability index read?
Its protein stability index is 4.15.

For PLMGETQERERVKTHFSRRYCQCN [L13K], which protein stability index is on record?
The protein stability index was 3.57.

For PLMGETQERERVWTHFSRRYCQCN [L13W], which protein stability index is on record?
Its protein stability index is 2.7.

For PLMGETQERERSLTHFSRRYCQCN [V12S], which protein stability index is on record?
The protein stability index was 3.03.

For PLMGETQERERTLTHFSRRYCQCN [V12T], which protein stability index is on record?
Its protein stability index is 3.73.

With PLMGETQERERGLTHFSRRYCQCN [V12G] as the variant, how does the protein stability index read?
Its protein stability index is 3.1.

For PLMGETQERERNLTHFSRRYCQCN [V12N], which protein stability index is on record?
Its protein stability index is 2.99.

Which protein stability index does the source give for PLMGETQERERDLTHFSRRYCQCN [V12D] here?
The protein stability index was 2.81.

For PLMGETQERERVLTHFSRRYCQCM [N24M], which protein stability index is on record?
The protein stability index was 2.96.

Which protein stability index does the source give for PLMGETQERERVLTHFSRRYCQCI [N24I] here?
Its protein stability index is 3.07.

With PLMGETQERERVLTHFSRRYCQCP [N24P] as the variant, how does the protein stability index read?
Its protein stability index is 3.02.

With PLMGETQERERVLTHFSRRYCQCG [N24G] as the variant, how does the protein stability index read?
The protein stability index was 3.05.

With PLMGETQERERVLTHFSRRYCQCS [N24S] as the variant, how does the protein stability index read?
The protein stability index was 3.38.

For PLMGETQERERVLTHFSRRYCQCT [N24T], which protein stability index is on record?
The protein stability index was 3.74.

With PLMGETQERERVLTHFSRRYCQCA [N24A] as the variant, how does the protein stability index read?
The protein stability index was 3.04.

For PLMGETQERERVLTHFSRRYCQCQ [N24Q], which protein stability index is on record?
The protein stability index was 2.88.

With PLMGETQERERVLTHFSRRYCQCR [N24R] as the variant, how does the protein stability index read?
The protein stability index was 2.14.

For PLMGETQERERVLTHFGRRYCQCN [S17G], which protein stability index is on record?
Its protein stability index is 3.85.

With PLMGETQERERVLTHFRRRYCQCN [S17R] as the variant, how does the protein stability index read?
The protein stability index was 2.42.

For PLMGETQERERVLTHFKRRYCQCN [S17K], which protein stability index is on record?
The protein stability index was 2.95.

Which protein stability index does the source give for PLMGETQERERVLTHFDRRYCQCN [S17D] here?
The protein stability index was 3.37.

For PLMGETQERERVLTHFNRRYCQCN [S17N], which protein stability index is on record?
Its protein stability index is 3.15.

For PLMGETQERERVLTHFWRRYCQCN [S17W], which protein stability index is on record?
The protein stability index was 1.52.

With PLMGETQERERVLTHFLRRYCQCN [S17L] as the variant, how does the protein stability index read?
Its protein stability index is 1.99.

For PLMGETQERERVLIHFSRRYCQCN [T14I], which protein stability index is on record?
Its protein stability index is 2.13.

For PLMGETQERERVLVHFSRRYCQCN [T14V], which protein stability index is on record?
Its protein stability index is 2.69.

With PLMGETQERERVLHHFSRRYCQCN [T14H] as the variant, how does the protein stability index read?
Its protein stability index is 2.65.

Which protein stability index does the source give for PLMGETQERERVLRHFSRRYCQCN [T14R] here?
The protein stability index was 2.73.

Which protein stability index does the source give for PLMGETQERERVLYHFSRRYCQCN [T14Y] here?
Its protein stability index is 1.71.

For PLMGETQERERVLDHFSRRYCQCN [T14D], which protein stability index is on record?
The protein stability index was 2.92.

For PLMGETQLRERVLTHFSRRYCQCN [E8L], which protein stability index is on record?
Its protein stability index is 1.89.

Which protein stability index does the source give for PLMGETQNRERVLTHFSRRYCQCN [E8N] here?
Its protein stability index is 2.46.

With PLMGETQARERVLTHFSRRYCQCN [E8A] as the variant, how does the protein stability index read?
Its protein stability index is 2.03.

With PLMGETQMRERVLTHFSRRYCQCN [E8M] as the variant, how does the protein stability index read?
Its protein stability index is 1.62.

For PLMGETQKRERVLTHFSRRYCQCN [E8K], which protein stability index is on record?
Its protein stability index is 2.12.

Which protein stability index does the source give for PLMGETQSRERVLTHFSRRYCQCN [E8S] here?
The protein stability index was 2.39.

With PLMGETQCRERVLTHFSRRYCQCN [E8C] as the variant, how does the protein stability index read?
The protein stability index was 2.17.

With PLMGETQFRERVLTHFSRRYCQCN [E8F] as the variant, how does the protein stability index read?
The protein stability index was 1.67.

For PLMGETQIRERVLTHFSRRYCQCN [E8I], which protein stability index is on record?
Its protein stability index is 2.69.

With PLMFETQERERVLTHFSRRYCQCN [G4F] as the variant, how does the protein stability index read?
Its protein stability index is 2.31.

Which protein stability index does the source give for PLMKETQERERVLTHFSRRYCQCN [G4K] here?
The protein stability index was 2.6.

Which protein stability index does the source give for PLMGETQENERVLTHFSRRYCQCN [R9N] here?
Its protein stability index is 4.17.

Which protein stability index does the source give for PLMGETQEGERVLTHFSRRYCQCN [R9G] here?
Its protein stability index is 2.98.

For PLMGETQEWERVLTHFSRRYCQCN [R9W], which protein stability index is on record?
The protein stability index was 1.46.

Which protein stability index does the source give for PLMGETQEIERVLTHFSRRYCQCN [R9I] here?
The protein stability index was 2.07.

Which protein stability index does the source give for PLMGETQETERVLTHFSRRYCQCN [R9T] here?
The protein stability index was 2.58.

For PLMGETQERERVLTHFSRRVCQCN [Y20V], which protein stability index is on record?
The protein stability index was 4.11.

Which protein stability index does the source give for PLMGETQERERVLTHFSRRCCQCN [Y20C] here?
Its protein stability index is 3.91.

Which protein stability index does the source give for PLMGETQERERVLTHFSRRNCQCN [Y20N] here?
The protein stability index was 3.81.

Which protein stability index does the source give for PLMGETQERERVLTHFSRRFCQCN [Y20F] here?
The protein stability index was 2.96.

Which protein stability index does the source give for PLMGETQERERVLTHFSRRLCQCN [Y20L] here?
Its protein stability index is 3.

For PLMGETQERERVLTHFSRRTCQCN [Y20T], which protein stability index is on record?
The protein stability index was 3.63.

For PLMGETQERERVLTHFSRRMCQCN [Y20M], which protein stability index is on record?
The protein stability index was 2.69.

With PLMGETQERERVLTHFSRRDCQCN [Y20D] as the variant, how does the protein stability index read?
Its protein stability index is 4.19.

Which protein stability index does the source give for PLMGETQERERVLTHFSRRWCQCN [Y20W] here?
The protein stability index was 2.42.

For PLMGETQERERVLTHFSRRGCQCN [Y20G], which protein stability index is on record?
Its protein stability index is 3.86.

Which protein stability index does the source give for FLMGETQERERVLTHFSRRYCQCN [P1F] here?
Its protein stability index is 2.48.

With NLMGETQERERVLTHFSRRYCQCN [P1N] as the variant, how does the protein stability index read?
The protein stability index was 2.97.

For YLMGETQERERVLTHFSRRYCQCN [P1Y], which protein stability index is on record?
The protein stability index was 3.12.

Which protein stability index does the source give for TLMGETQERERVLTHFSRRYCQCN [P1T] here?
Its protein stability index is 2.58.

With ELMGETQERERVLTHFSRRYCQCN [P1E] as the variant, how does the protein stability index read?
The protein stability index was 2.79.

Which protein stability index does the source give for KLMGETQERERVLTHFSRRYCQCN [P1K] here?
The protein stability index was 2.25.

With ILMGETQERERVLTHFSRRYCQCN [P1I] as the variant, how does the protein stability index read?
The protein stability index was 2.04.

For DLMGETQERERVLTHFSRRYCQCN [P1D], which protein stability index is on record?
The protein stability index was 1.82.

With HLMGETQERERVLTHFSRRYCQCN [P1H] as the variant, how does the protein stability index read?
The protein stability index was 2.6.

With PLMGETQERCRVLTHFSRRYCQCN [E10C] as the variant, how does the protein stability index read?
Its protein stability index is 2.92.

With PLMGETQERKRVLTHFSRRYCQCN [E10K] as the variant, how does the protein stability index read?
Its protein stability index is 2.58.

Which protein stability index does the source give for PLMGETQERRRVLTHFSRRYCQCN [E10R] here?
Its protein stability index is 1.82.

With PLMGETQERTRVLTHFSRRYCQCN [E10T] as the variant, how does the protein stability index read?
The protein stability index was 2.07.

With PLMGETQERPRVLTHFSRRYCQCN [E10P] as the variant, how does the protein stability index read?
The protein stability index was 2.03.

For PLMGETQERFRVLTHFSRRYCQCN [E10F], which protein stability index is on record?
The protein stability index was 2.19.

Which protein stability index does the source give for PLMGETQERIRVLTHFSRRYCQCN [E10I] here?
The protein stability index was 2.1.

With PLMGETQERQRVLTHFSRRYCQCN [E10Q] as the variant, how does the protein stability index read?
The protein stability index was 2.33.
